Data reported in patent publication US20090074779A1 (COPENHAGEN UNIVERSITY, published 2009).

T1: P75 receptor (UniProt P08138 29-250, limits assumed)
T1 construct: also called p75NTR; p75(NTR)
T1 sequence (looked up): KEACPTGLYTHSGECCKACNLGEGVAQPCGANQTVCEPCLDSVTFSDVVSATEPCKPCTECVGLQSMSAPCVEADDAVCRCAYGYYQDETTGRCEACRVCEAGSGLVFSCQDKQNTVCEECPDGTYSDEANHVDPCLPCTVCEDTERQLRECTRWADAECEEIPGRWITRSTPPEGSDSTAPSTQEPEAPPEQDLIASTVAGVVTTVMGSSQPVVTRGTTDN


Legend:
Test in all cases: SPR (BIAlite), receptor amine-coupled on CM4 chip, ligand injected, 25 C
TrkB = molecular target: T2, TrkB (UniProt Q16620 32-430, limits assumed)
T2 construct: also called NTRK2; TrkB receptor
Method: (§1) The TrkA, TrkB and TrkC receptors and p75^NTR were immobilized on a sensor chip, CM4, using an amine-coupling kit as follows: the chip was activated by 20 μl activation solution, N-hydroxysuccinimide, (NHS) and N-ethyl-N′-(3-[…])-carbodiimide (EDC), the protein was immobilized using 30 μl of a mixture of 4 μl (0.5 μg/ml) protein in 50 μl 10 mM sodium acetate buffer (pH 4.0); and the chip was blocked by 35 μl blocking solution (ethanolamine-HCl). The receptor surface was regenerated between ligand injections with 15 μl 2 mM NaCl or 10 mM glycine-HCl, pH 2.5. In the present experiments a flow rate of 5 μl/min was used.
(§2) The curve corresponding to the difference between binding to the Trk receptors or the […] receptor and a blank chip was used for analysis.

TrkC = molecular target: T3, TrkC (UniProt Q16288 32-429, limits assumed)
T3 construct: also called NTRK3; TrkC receptor
Method: as §1, §2

P75 receptor = molecular target: T1, P75 receptor
Method: as §1, §2

TrkA = molecular target: T4, TrkA (UniProt P04629 34-413, limits assumed)
T4 construct: also called NTRK1; TrkA receptor
Method: as §1, §2

T2 sequence (Q16620 32-430 limits assumed): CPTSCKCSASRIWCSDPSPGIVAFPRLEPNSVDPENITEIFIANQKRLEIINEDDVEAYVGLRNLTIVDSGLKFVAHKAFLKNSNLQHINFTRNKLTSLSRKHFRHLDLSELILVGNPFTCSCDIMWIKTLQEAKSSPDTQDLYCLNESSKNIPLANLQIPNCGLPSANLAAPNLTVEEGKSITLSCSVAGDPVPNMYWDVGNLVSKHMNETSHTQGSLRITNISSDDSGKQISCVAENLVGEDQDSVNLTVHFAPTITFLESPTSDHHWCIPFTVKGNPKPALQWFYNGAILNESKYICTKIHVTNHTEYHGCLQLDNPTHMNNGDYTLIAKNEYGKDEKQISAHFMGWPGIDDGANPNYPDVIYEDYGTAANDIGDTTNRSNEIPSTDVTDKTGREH
T4 sequence (P04629 34-413 limits assumed): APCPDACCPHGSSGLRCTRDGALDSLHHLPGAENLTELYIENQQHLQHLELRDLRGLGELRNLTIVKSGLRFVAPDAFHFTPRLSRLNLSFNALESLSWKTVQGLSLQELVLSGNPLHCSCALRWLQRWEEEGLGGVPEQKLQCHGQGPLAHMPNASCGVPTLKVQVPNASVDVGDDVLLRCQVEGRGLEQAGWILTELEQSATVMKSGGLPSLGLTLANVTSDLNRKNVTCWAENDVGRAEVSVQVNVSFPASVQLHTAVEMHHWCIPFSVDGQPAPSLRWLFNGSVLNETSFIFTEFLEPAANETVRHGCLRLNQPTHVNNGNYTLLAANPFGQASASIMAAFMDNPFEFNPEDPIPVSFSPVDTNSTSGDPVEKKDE

Binder | Kd (TrkB) [nM] | Kd (TrkC) [nM] | Kd (P75 receptor) [nM] | Kd (TrkA) [nM]
RGIDSKHWNSY (also called NGF derived peptide NGF-E) [NGF-E] | 254 | 1060 | 2600 | –
CVLSRKAVRRA [NGF-C2] | 883 | 658 | 385 | 727
BDNF (ligand, UniProt P23560 129-247, looked up, also called brain-derived neurotrophic factor) HSDPARRGELSVCDSISEWVTAADKKTAVDMSGGTVTVLEKVPVSKGQLKQYFYETKCNPMGYTKEGCRGIDKRHWNSQCRTTQSYVRALTMDSKKRIGWRFIRIDTSCVCTLTIKRGR | 1.18 | – | 0.0584 | –

The next lines start with the values.

Kd (TrkB) [nM] | Kd (TrkC) [nM] | Kd (P75 receptor) [nM] | Kd (TrkA) [nM] | Binder
10.3 | 51.9 | 226 | – | TFVKALTMDGKQAAWR (also called NGF derived peptide NGF-EE) [NGF-EE]
173 | 697 | 556 | – | RGIDKRHWNSQ (also called BDNF derived peptide BDNF-E) [BDNF-E]
38.7 | 166 | 110 | – | SYVRALTMDSKKRIGWR (also called BDNF derived peptide BDNF-EE) [BDNF-EE]
